Target: CREPT (RPRD1B) (UniProt Q9NQG5)
Assay: co-IP
Conditions: reference: wild type; sites Y705

## STAT3 (from UniProt P40763) Y705F
  binding against the reference: lost

Reference: PMC8039031
